# Experimental data reported in patent publication US20180311300A1 (published 2018).
# Values joined by “and” are separate entries in the source; they are usually repeats but may differ in a detail not shown here. Equal values may be shown once. Numbered stars: 1 amine (or outer) side, 2 acyl side, 3 side chain; on linkers, the order of the positions; unused ones are H or OH. Bridge positions count the residues as written; N and C are the ends. Square brackets hold non-standard residues; d marks the D form. Ends that are not written are not given here. Intermediate H = 1,1',1''-(1,7,13-trioxa-4,10,16-triazacyclooctadecane-4,10,16-triyl)tris(2-chloroethan-1-one), O=C(C[*:1])N1CCOCCN(C(=O)C[*:2])CCOCCN(C(=O)C[*:3])CCOCC1; Intermediate D = 1,1',1''-(1,4,7-triazonane-1,4,7-triyl)tris(prop-2-en-1-one), O=C(CC[*:1])N1CCN(C(=O)CC[*:2])CCN(C(=O)CC[*:3])CC1; Intermediate K = 1,3,5-tris(vinylsulfonyl)benzene, O=S(=O)(CC[*:1])c1cc(S(=O)(=O)CC[*:2])cc(S(=O)(=O)CC[*:3])c1; Intermediate C = 1,1',1''-(1,4,7-triazonane-1,4,7-triyl)tris(2-chloroethan-1-one); Intermediate I = 1,4,7-tris(vinylsulfonyl)-1,4,7-triazonane; 1Nal = N[C@@H](Cc1cccc2ccccc12)C(=O)O; Tle = CC(C)(C)[C@H](N)C(=O)O
# B1: I-61 (peptide)
# peptide: AC[dA]NE[1Nal][dA]CEDFYD[Tle]C
# modifications: linker 2-8-15 via Intermediate K
# notes: also called peptide 4 cyclised with Intermediate K
# B2: I-59 (peptide)
# peptide: AC[dA]NE[1Nal][dA]CEDFYD[Tle]C
# modifications: linker 2-8-15 via Intermediate I
# notes: also called peptide 4 cyclised with Intermediate I
# B3: I-58 (peptide)
# peptide: AC[dA]NE[1Nal][dA]CEDFYD[Tle]C
# modifications: linker 2-8-15 via Intermediate H
# notes: also called peptide 4 cyclised with Intermediate H
# B4: I-54 (peptide)
# peptide: AC[dA]NE[1Nal][dA]CEDFYD[Tle]C
# modifications: linker 2-8-15 via Intermediate C
# notes: also called peptide 4 cyclised with Intermediate C
# B5: I-55 (peptide)
# peptide: AC[dA]NE[1Nal][dA]CEDFYD[Tle]C
# modifications: linker 2-8-15 via Intermediate D
# notes: also called peptide 4 cyclised with Intermediate D
# How the values were obtained:
# [1] = molecular target: T1, MT1-MMP hemopexin domain (UniProt P50281 319-511); assay: fluorescence polarization (anisotropy) assay on MT1-MMP hemopexin domain; grade A = Ki <50 nM
# T1 construct: domain: hemopexin domain; also called hemopexin of MT1-MMP; membrane type 1 metalloprotease
# Protocol: (§1) Direct Binding Fluorescence Polarization or Anisotropy Assays are performed by titrating a constant concentration of fluorescent tracer (here, the fluoresceinated bicyclic peptide to be studied) with its binding partner (here, the MT1-MMP hemopexin domain). As the concentration of binding partner increases during the titration, the polarization signal changes in proportion to the fraction of bound and unbound material. This allows determination of […] (Kd) quantitatively. Assay data can be fit using standard ligand binding equations.
# (§2) The titrant (binding partner) concentration is varied from 0.1 nM up to typically 5 μM. The range is chosen such that the maximum change in fluorescent polarization can be observed. Buffers employed are phosphate buffered saline in the presence of 0.01% Tween. Experiments were run in black 384 well low-bind/low volume plates (Corning 3820), and the fluorescent polarization signal was measured using a BMG Pherastar FS plate reader. Fluorescent tracers referred to in the text are bicyclic peptides that have been fluoresceinated using 5,6-carboxyfluorescein. Fluoresceination may be performed on the N-terminal amino group of the peptide, which is separated from the bicycle core sequence by a sarcosine spacer (usually Sar5). […]
# [2] = molecular target: T1, MT1-MMP hemopexin domain; assay: fluorescence polarization (anisotropy) assay on MT1-MMP hemopexin domain; grade D = Ki >1,000 nM
# Protocol: as §1, §2
# [3] = molecular target: T1, MT1-MMP hemopexin domain; assay: fluorescence polarization (anisotropy) assay on MT1-MMP hemopexin domain; grade B = Ki >50 nM and <=100 nM
# Protocol: as §1, §2
Binder,Ki [1] [nM],Ki [3],further results
B1,< 50,–,–
B2,–,–,Ki [2]: > 1000 nM
B3,–,> 50 nM and ≤ 100 nM,–
B4,< 50,–,–
B5,–,> 50 nM and ≤ 100 nM,–
